B1: S45 glycoprotein (45 kDa sporozoite surface protein of Cryptosporidium parvum) (other)
chain: DVPVEGSSSSSSSSSSSSSSSSSSSSSTSTVAPANKARTGEDAEGSQDSSGTEASGSQGSEEEGSEDDGQTSAASQPTTPAQSEGATTETIEATPKEECGTSFVMWFGEGTPAATLKCGAYTIVYAPIKDQTDPAPRYISGEVTSVTFEKSDNTVKIKVNGQDFSTLSANSSSPTENGGSAGQASSR
modifications: long stretch of serine residues after DVPVEG glycosylated with single residues of alpha N-acetyl galactosamine (first serine only partially); residues 180, 186 and 188 (S60 numbering) thought to be modified lysines
notes: Native protein from sporozoites/oocysts; also called 45 kDa protein; 45 kDa band
B2: S30 (minor sporozoite protein, proteolytic degradation product of S45) (other)
chain: TGEDAEGSQDSSGTEASGSQGSEEEGSEDDGQTSAASQPTTPAQSEGATTETIEATPKEECGTSFVMWFGEGTPAATLKCGAYTIVYAPIKDQTDPAPRYISGEVTSVTFEKSDNTVKIKVNGQDFSTLSANSSSPTENGGSAGQASSR
B3: S15 glycoprotein (15 kDa sporozoite surface protein of Cryptosporidium parvum) (other)
chain: SEETSEAAATVDLFAFTLDGGKRIEVAVPNVEDASKRDKYSLVADDKPFYTGANSGTTNGVYRLNENGDLVDKDNTVLLKDAG
modifications: glycosylated (labelled by H. pomatia lectin); glycosyl phosphatidyl inositol anchor predicted at the C-terminal glycine (residue 305 of S60)
notes: Native protein from sporozoites/oocysts, on blots after SDS-PAGE; also called 15 kDa protein band; 15 kDa protein

The target of experiment [1] is B3. The experiment is described as follows: co-fractionation: Triton X-114 phase separation, isoelectric focusing.
For experiment [2], the target named is T1, Canavalia ensiformis lectin (Con A) (Canavalia ensiformis, UniProt P02866 30-281, limits assumed, biotin-conjugated). The experiment is described as follows: lectin blot after SDS-PAGE of sporozoite surface proteins.
The target of experiment [3] is T1, Canavalia ensiformis lectin (Con A). The experiment is described as follows: lectin Western blot of Triton X-114 fractionated sporozoite proteins. Background: Immunoblotting shows a protein as a band on a membrane.
Experimental: Excysted oocysts or purified sporozoites were resuspended to 1×10⁹ cells/ml in ice-cold TBS (10 mM Tris, pH 8.0, 140 mM NaCl) containing a protease inhibitor mixture of 50 μM leupeptin (Sigma),.10 μM E-64 (Sigma), 1 mM phenylmethylsulfonylfluoride (Sigma). […] Lysates were then centrifuged (100,000×g for 1 h at 4° C.) and the supernatant warmed for 3 minutes to 37° C. to induce phase separation. The water phase and the membrane protein enriched detergent phase were separated by centrifugation and each phase reextracted once. The phases were adjusted to the original volume and proteins precipitated by adding 1/10 volume of ice cold 100% (w/v) trichloroacetic acid. After 30 minutes precipitates were pelleted by centrifugation and washed twice in 70% (v/v) ice-cold ethanol and once with acetone. Pellets were then air dried and redissolved in 1-D or 2-D sample buffer for electrophoretic analysis.
For lectin analysis, membranes blocked with 1% (w/v) BSA in PBS were incubated for 1 h with biotin-conjugated lectins (Sigma) in BSA/PBS and a further 3 h with 1:10,000 alkaline-phosphatase-conjugated ExtrAvidin in PBS. […] Membranes were developed in 1 M diethanolamine, pH 9.8, containing 1 mM MgCl₂, 0.5 mM 5-bromo-4-chloro-3-indolyl phosphate and 0.5 mM nitroblue tetrazolium.

In the case of B1, the binding result in experiment [1] was “binds”; in experiment [2] it was “no binding”.

For B2, the binding result in experiment [3] is on record as “no binding”. As for B3, the binding result in experiment [2] is recorded as “no binding”.

The values are drawn from patent US20030185836A1 (published 2003).
